Reference: the DeepSol protein solubility set

test: soluble on expression in E. coli; label from the status in PepcDB or PDB records

Soluble on expression in E. coli, soluble:
GPGSMVRKNMYDGWSYERLRQQRNRAHFLLEDPYRFVTVLLHNGKLYAIDSPCYHASGPLGEGELMDLEDSHTAASVACLRCPWHNILVAIDTGEIVEVHPDTSAVRGKDDGGRELAAPSYPLRPHWEASAGSVRLSRGNVVQRTHKVSLDESNGIMTIEIEDEATMRRHPLPSDAAAGILESGALTMQIFDIKSKGMS, MGKLLTMAMPKGRIFEEAAGLLRQAGYRLPEEFEDSRKLIIDVPEENLRFILAKPMDVTTYVEHGVADVGIAGKDVMLEEERDVYEVLDLNISKCHLAVAGLPNTDWSGVAPRIATKYPNVASSYFREQGEQVEIIKLNGSIELAPLIGLADRIVDIVSTGQTLKENGLVETEHICDITSRFIVNPVSYRMKDDVIDEMASRLSLVVEGETAKLEHHHHHH, MENSHKRGRPDILHQALLVILTDPVIKGDIFIHTIQSKIIKVNPNMRPPKNYLRFIGLMEQLLKYGKIPINGDETLMEVTNLTLDNIVNRYDLILLSEKGEKINPEEICKLDEKWLLGIGAFPHGDFSDKILNLAKKIYSISGFPLETQQVLCRIFSACNS, MEYLNVAEIKALLNSTISKLNPRYTSNYMIVTAILTGARLSEIAGLTWNDINFNFNTININKSYDYFAKSFKPTKNKSSNRIIKINNTLCDVLKELRTNNTDLVFKNKRGLIPTSNAVNKALRARLEELNINRRNFHFHSLRHSHVAFLLSQGIDIYPIAQRLGHSDITTTTRTYAYLIEEYKDKNDAIIIAGLDKLEHHHHHH, MGKALVIVESPAKAKTINKYLGSDYVVKSSVGHIRDLPTSGSAAKKSADSTSTKTAKKPKKDERGALVNRMGVDPWHNWEAHYEVLPGKEKVVSELKQLAEKADHIYLATDLDREGEAIAWHLREVIGGDDARYSRVVFNEITKNAIRQAFNKPGELNIDRVNAQQARRFMDRVVGYMVSPLLWKKIARGLSAGRVQSVAVRLVVEREREIKAFVPEEFWEVDASTTTPSGEALALQVTHQNDKPFRPVNKEQTQAAVSLLEKARYSVLEREDKPTTSKPGAPFITSTLQQAASTRLGFGVKKTMMMAQRLYEAGYITYMRTDSTNLSQDAVNMVRGYISDNFGKKYLPESPNQYASKENSQEAHEAIRPSDVNVMAESLKDMEADAQKLYQLIWRQFVACQMTPAKYDSTTLTVGAGDFRLKARGRILRFDGWTKVMPALRKGDEDRILPAVNKGDALTLVELTPAQHFTKPPARFSEASLVKELEKRGIGRPSTYASIISTIQDRGYVRVENRRFYAEKMGEIVTDRLEENFRELMNYDFTAQMENSLDQVANHEAEWKAVLDHFFSDFTQQLDKAEKDPEEGGMRPNQMVLTSIDCPTCGRKMGIRTASTGVFLGCSGYALPPKERCKTTINLVPENEVLNVLEGEDAETNALRAKRRCPKCGTAMDSYLIDPKRKLHVCGNNPTCDGYEIEEGEFRIKGYDGPIVECEKCGSEMHLKMGRFGKYMACTNEECKNTRKILRNGEVAPPKEDPVPLPELPCEKSDAYFVLRDGAAGVFLAANTFPKSRETRAPLVEELYRFRDRLPEKLRYLADAPQQDPEGNKTMVRFSRKTKQQYVSSEKDGKATGWSAFYVDGKWVEGKK

Soluble on expression in E. coli, not soluble:
MGSDKIHHHHHHMYREFYGLREKPFSKTPDPRYLFLSRGHREALARLQYAVEERELALLTGDIGCGKTTISRALMDAMGEACRFCFIFNPRLSPLEFLRVIARSLGIDNPAGAKDELLKQLTETLYLMHAEGRCPVIVVDEAQLIPDRDVFDEIRLLTNYQLDDQNLMSVVLMGQPELRQILADPVHEPLRQRIALHYHLQPLSLDETLEYIDFRLEVAGGTPGLFSPDAVQRIHELSGGVPRKINILATNALLVGYGRDAAWIDASLVEELRDEANLY, GPGSMRLLSKAAHPDGSMEVRVSVGTAEDLWHLYNFILVGDLVLTKTRRKVPRENALGTLAAEMKMLKLEVEVKHIAFTPDELRIQGVNKKENNFVKTGAHHTLTIHANPPQEVRITKREWDSICEDRLKDACDESGKADTAAVLMSFGEAQVLLVTRSFVHIKAKVEVTISKKHKSDGKARDKSIERFFKQSLDALVTHVDFEKTKLVLLCSPGHVREEFHAYIKEVTQRADHGPLREVYLNLSRFLLVKVSSTTISGLKEALSDPGVAQRMESTKCVDDIRMWEKFQDTMNKDPDRCVYTPQYVYYAAMAGAVGGLMISDDVFRSENPTERRFFLSLVNFVRQSGSPTVNVFSSKHVTGEQLTQLGSVAAVLRFSCPEIDDMEVVPEFLASKEVEEFIRANATARVTV, MGHHHHHHSHMINQRMIHMKNTKLLLAIATSAALLTGCQNTHGIDTNMAISSGLNAYKAATLSDADAKAIANQGCAEMDSGNQVASKSSKYGKRLAKIAKALGNNINGTPVNYKVYMTSDVNAWAMANGCVRVYSGLMDMMNDNEIEGVLGHELGHVALGHSLAEMKASYAIVAARDAISATSGVASQLSRSQLGDIAEGAINAKYSRDKESEADDFSFDLLKKRGISTQGLVGSFETLASLDGGRTQSMFDSHPPSTERAQHIRDRIASGK, MSQQELFFEVRRNRSHIYLDAEESHSVMELKLMLAGITRDPVNHMELWKLDEDGNKSQLLHDTATLSDAGFSSTNAKAQCPAALGLRLTNAEEHLTISDVSTAPPIPDTMRQEQAPQE, MGSDKIHHHHHHMTMKTRDKILLSSLELFNDKGERNITTNHIAAHLAISPGNLYYHFRNKSDIIYEIFQEYEKLVDYYLDIPEDRPITLEDMTFYLESVFDGLWSYRFFHRDLEYLLDSDPRLRQDYREFTNRCLAAINRIFAKLADAGIIQPQPEDLRSAMSLNVWLVITNWMAFLKTAHAAEEPASLSLTELKQGIYQVLTLEVPYLTPEYRERVLALREKYRPTLPEAQGISGVEA, RLVLAGNGMAGIRCIEEVLKLNRHMFEIVIFGSEPHPNYNRILLSSVLQGEASLDDITLNSKDWYDKHGITLYTGETVIQIDTDQQQVITDRKRTLSYDKLIVATGSSPHILPIPGADKKGVYGFRTIEDCQALMNMAQHFQKAAVIGAGLLGLEAAVGLQHLGMDVSVIHHSAGIMQKQLDQTAARLLQTELEQKGLTFLLEKDTVSISGATKADRIHFKDGSSLKADLIVMAAGVKPNIELAVSAGIKVNRGIIVNDFMQTSEPNIYAVGECAEHNGTVYGLVAPLYEQGKALASHICGVPCEEYQGSAPSAALKIAGIDVWSAGKIQEDERTTSIKIYDEQAGVYKKALFVDDKLRVILFGDTRDKQRLLDSLLKQRDISIAKKQIIEPETSGPLFESMPSSETICQCNTVTKGAIEDAVHTNSLTTVEEVKHCTKATGSCGGCKPLVEDLLRYMTNSEYTKPASTPSFCSCTDFTEDDIIAELQRRPFTNPAEVMNQLDWKTKNGCSTCVPAIQYYLEMLYPGFVQPEPATEETCILIPQMYGGRTNAEQLRTIANIIEAYSIPDVSITHGQRLKLSGIKPADLPNMKKDLKMPVYTNEHRHALQSIKACTCGQNRSIQQLAAQIERQLEMLPLPAPISISLSCETDCTEAALQDVGAIRTQAGWDIHIGGVRGTHARSGALFCVTENEDSTAGMIKGLIQYYRETDHYLEGVHQWIDRLGIVHIREVLFEEDLRAQLLESLQTDLSLIQNPTVETGAYKK, MSLALLLRVRRLRLDRAERAQGRQLLRVRAAAQEHTERQAAQRDYRDWRLAEEQRLFLACQAAMLDRRRLEAWQQQVGLLREKEAGLEQDCAEAAQRLEGERERLRQCRRELLERQRQLEKFAELERHVDAERQGLRERSEEGELEEFTRHETWPCSSLEHHHHHH, MAAASVKGFFQRTGISIKEYFKRMGNDYATVARETVQGCKDRPVKAGVVFSGLGFLTYAYQTNPTELEMYDYLCERRQKLVLVPNSEHNPATTKELTARDFLISQNRLHYYNLWFFSLLVASDYNDKLRIYSSQDSNLKDWPWTELWRNIVDIGALGRWHRMETAFVDYDVNTDEIDLLPDGDKN, QMLVNKARLANLNVSLEEKVMQRTVVLSEANHKLQQTVRQYEQSQQELRQTQQELTQAAKLALLGELSASINHEINQPLAALRTYTENSQRLLSMERYPMVADNLNKMLSLNETIAEVIARLKVFTRKTSHEPHNEVSILHDAVHNATSILSNKLIKQGVTLKVPTIDHEVRLAIHSVE, MGSDKIHHHHHHMDDLLLELARQYRNRYYGKYRGFVTDNDDPEQRGRLRLMVPSVLGETPTGWALPSLPFGGLADQGLFMVPEVDAQVWVEFEAGNVNLPIWTGTFWQASGDPPAEAAKSPPTTRVLKTPSGHILQFDDESGAEKFRLAHPAGTEMTVDEKGTVIVADAKGNTLTLDADAGKVVVEDSNGNTITMSSSGTTIEDANGNKVEMAASGVTVKGQQVVVDAQTVMLAGQGGEPIIKGQSFLTLFATHVHPSAMGPTGPPIPQGEMSTLSMKVMTS, MAHHHHHHMRFLKTLFSLNCLASVGFYKKFACKNLFFENSFIRKDLHTYFIDKRKYFHLNKKDICTNTIIIPFYKDNYSYIFYDDKEEGIVVDPADYNIINDISKKENIKIKHVLCTHKHSDHNNGNQYYYEKNINVYGIKEYDNKYINQDISNLTHFQINNFKINIFLSNFHSKNQVSYLIENDNNKSKKNIFFTGDFLFISGIGKNFEQDNEDLYNSINKLKLLDKQNIYIFCGHEYTLDNLKFALTVDSTNKNLLSFYDHVVNSNKNYPTVPTLLEHEYLYNPFLRCDQNDVRKSIDLYAKKKNIKIQQESDYIVILRLMKDNFKAS, MGSDKIHHHHHHAQTPNTLTKKEKKAGWELLFNGKDFSGWRQCNGTAMPANWVIEDNAMKVFTGEGKKPGQGANGDILYQNKKFKNFELSVDWKASKMGNSGIFYYVREVPGKPIYYAAPEVQVLDNVDATDNKLANHLAGSLYDMLPADPKTVNPAGEWNTIVIRVKDGKVTHTQNGKKVVEYTLWSKEWDDLVANSKFKNFPGFTEGISKEGYIGLQDHGYPIWFRNIKIRELK, MLKKLSPIFSNITGVVRYQDLAYVASVSDEIQEQNIAHSYVTEWDCGTWCVAGEDDDMLPWEIVSATVVHEPVEQALFLGARGQVFCMGSGDIHEEQLPDGDDAIGGRGNMRGVACIDGVAYACGMDRQVYRRFDENDWRAIDTGARPPAGSEAVVGFEAIGGFGAREIYAVGWDGEIWQYDGKRWQPRESPTNLILTAICCAEDGSVYACGQAGTLLRGRNDHWEIIAQDDVDEDLWSLAWFDGALYVSSATAVYTLVGGHLKEVDFGDEQPQRCFHLSAADGVLWSIAAKDIFSFDGQQWTRID, MTTMNPFLVQSTLPYLAPHFDQIANHHYRPAFDEGMQQKRAEIAAIALNPQTPDFNNTILALEQSGELITRVTSVFFAMTAAHTNDELQRLDEQFSAELAELANDIYLNGELFARVDAVWQRRESLGLDSESIRLVEVIHQRFVLAGAKLAQADKAKLKVLNTEAATLTSQFNQRLLAANKSGGLVVNDIAQLAGMSEQEIALAAEAAREKGLDNKWLIPLLNTTQQPALAEMRDRATREKLFIAGWTRAEKNDANDTRAIIQRLVEIRAQQAKLLGFPHYAAWKIADQMAKTPEAALNFMREIVPAARQRASDELASIQAVIDKQQGGFSAQPWDWAFYAEQVRREKFDLDEAQLRPYFELNTVLNEGVFWTANQLFGIKFVERFDIPVYHPDVRVWEIFDHNGVGLALFYGDFFARDSKSGGAWMGNFVEQSTLNETHPVIYNVCNYQKPAAGEPALLLWDDVITLFHEFGHTLHGLFARQRYATLSGTNTPRDFVEFPSQINEHWATHPQVFARYARHYQSGAAMPDELQQKMRNASLFNKGYEMSELLSAALLDMRWHCLEENEAMQDVDDFELRALVAENMDLPAIPPRYRSSYFAHIFGGGYAAGYYAYLWTQMLADDGYQWFVEQGGLTRENGQRFREAILSRGNSEDLERLHRQWRGKAPQIMPMLQHRGLNI
